Results published in article doi:10.1101/2021.08.05.455261.
Where two headings read alike, the source gives them in different places.

Assays:
Assay in all cases: SEC
[1] = target: C-terminal domain homolog (CTDH) from Anabaena variabilis (Anabaena variabilis)
[2] = target: C-terminal domain homolog (CTDH) from Anabaena variabilis (Anabaena variabilis); remark: listed apart in the source
[3] = target: C-terminal domain homolog (CTDH) from Anabaena variabilis (Anabaena variabilis); remark: listed apart in the source
[4] = target: C-terminal domain homolog (CTDH) from Anabaena variabilis (Anabaena variabilis); remark: listed apart in the source

Measured: stoichiometry N

C-terminal domain homolog (CTDH) from Anabaena variabilis (natural protein)
2: all assays above
